*1 amine or outer side, *2 acyl side, *3 side chain or, on linkers, in order; H or OH if unused. Bridges are numbered along the chain shown (N, C = ends). Where no end group is shown, it is not given here. Side-chain parts run from the residue outwards. The star is where a group is joined. C18 diacid = O=C(O)CCCCCCCCCCCCCCCCC(=O)*; γGlu = O=C(O)[C@H](CCC(=O)[*:2])N[*:1]; AEEA = NCCOCCOCC(=O)O
Key:
[1] = molecular target: CGRP receptor (calcitonin receptor-like receptor (CRLR), receptor activity modifying protein-1 (RAMP1)) (Homo sapiens, UniProt O60894+Q16602); experiment: CGRP-induced cAMP accumulation in CGRP receptor expressing cells (CHO, CRE luciferase reporter); assay type: cell-based; conditions: for pEC50-ratio relative to human alpha-CGRP, measured by the CGRP-induced cAMP accumulation in CGRP receptor expressing cells: crude SPOT-synthesised peptides, photo-cleaved, in DMSO, CGRP-1-luc cell line
CGRP receptor (calcitonin receptor-like receptor (CRLR), receptor activity modifying protein-1 (RAMP1)), sequence (Q16602 23-461, species assumed): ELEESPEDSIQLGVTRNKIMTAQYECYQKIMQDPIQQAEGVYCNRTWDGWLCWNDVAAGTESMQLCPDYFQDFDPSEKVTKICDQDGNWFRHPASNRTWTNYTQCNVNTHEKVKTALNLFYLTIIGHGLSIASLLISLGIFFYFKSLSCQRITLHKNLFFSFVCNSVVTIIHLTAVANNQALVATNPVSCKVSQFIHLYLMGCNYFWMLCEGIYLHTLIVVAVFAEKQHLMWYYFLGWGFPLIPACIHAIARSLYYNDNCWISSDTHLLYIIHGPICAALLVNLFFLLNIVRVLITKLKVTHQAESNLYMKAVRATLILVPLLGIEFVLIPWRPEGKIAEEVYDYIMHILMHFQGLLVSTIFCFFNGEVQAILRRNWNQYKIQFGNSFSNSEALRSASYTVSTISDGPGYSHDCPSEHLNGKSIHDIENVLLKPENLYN
CGRP receptor (calcitonin receptor-like receptor (CRLR), receptor activity modifying protein-1 (RAMP1)), sequence (O60894 27-148, species assumed): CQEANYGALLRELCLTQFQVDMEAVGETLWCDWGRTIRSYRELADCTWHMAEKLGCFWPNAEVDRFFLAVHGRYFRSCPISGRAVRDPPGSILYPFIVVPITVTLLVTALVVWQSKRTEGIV
Procedure: Chinese hamster ovary (CHO) cells were stably transfected with calcitonin receptor-like receptor (CRLR), receptor activity modifying protein-1 (RAMP1) and CRE luciferase (cAMP responsive element for control of luciferase gene expression). Luciferase is a reporter-gene reporting accumulation of intracellular cAMP).
Cells were cultured in F12 media supplemented with GlutaMAX™ (Gibco cat no 31765-027), FBS (10%, Gibco 16140-071), Penicillin-streptomycin (1%, Lonza DE-17-602E), G418 (400 μg/ml, Gibco 10131-027), Blasticidine (10 μg/ml, Corning cat no 15205), Hygromycin (400 μg/ml, Calbiochem cat no 400052).
Cells were seeded in a 96 well plate (Packard #6005180), 20000 cells/well in 100 μl media on the day before experimentation. On the day of experimentation media was replaced by assay medium (Dulbecco's media w/o phenol red (Gibco cat no 11880-028) supplemented with 10% FBS (10%, Gibco 16140-071), Hepes (10 mM, Gibco cat no 15630), GlutaMAX™ (2 mM, Gibco cat no 35050), 50 μl/well.
Peptides were diluted in assay media before added to cells for stimulation, 50 μl/well.
Cells were incubated 5% CO2, 37° C. for 4 hours.
Assay medium and peptides were replaced by phosphate buffered saline (PBS, Gibco cat no 14040-091), 100 μl/well and LucLite™ (PerkinElmer, cat no 6076759), 100 μl/well were added. The plate was sealed before incubation for 30 min at room temperature (21° C.). Luciferase activity (luminescens, 7 s/well) was measured (TopCount®, NXT, Packard).
Dose-response curves were fitted by use of GraphPad Prism software and pEC50 values were calculated. Data were given as mean±SEM, n=2 and each analogue was tested twice.

[2] = Pharmacokinetic properties of CGRP and analogues, plasma level by CGRP ELISA; assay type: in vivo; conditions: male, Sprague Dawley, rat, sc, SD rats, single s.c. injection, Analog alpha1 151 nmol/kg, Analogue beta1 231 nmol/kg
Procedure: Male Sprague Dawley rats (n=24) weighing approximately 250 g were used for the combined pharmacokinetic (T½, Cmaxetc.) and pharmacodynamic (GLP-1 release) study. The rats were divided in 4 groups with n=6 rats per group. The rats were treated with a single subcutaneous injection (1 ml/kg) of vehicle, alpha-CGRP (138 nmol/kg), Analogue beta1 (231 nmol/kg) or Analog alpha1 (151 nmol/kg). Blood (200 μl) was sampled from vena sublingualis from unanaesthetised rats pre-dose and at 0.5, 1, 3, 7 and 24 hours post dosing. Blood was collected in tubes containing EDTA. The samples were kept on ice and centrifuged. The plasma was kept at −20° C. until analysis for CGRP analog and total GLP-1.
A commercial available kit (Human CGRP ELISA, cat. #A05481, SPIbio) was used for monitoring the plasma levels of CGRP-analogues. Briefly, the assay was a two-sited enzyme-linked immuno sorbent assay (ELISA) using two antibodies against human CGRP. A monoclonal antibody was immobilized to the surface of micro plate wells. Five micro liter of plasma samples or calibrators were applied to the appropriate wells and incubated for 2 hours together with 100 μL buffer and 100 μL AChE-conjugated Fab′ fragment. […] The color intensity was determined by spectrophotometer at 405 nm. […] The lower limit of quantification of the modified CGRP assay was approximately 750 pM and the imprecision was (% CV)<10%.

[3] = CGRP-induced reduction in food intake by automatic food intake measurements (FeedWin); assay type: in vivo, Sprague Dawley (SD) rats; conditions: SD rats, s.c., monitored for 48 hours, FIG. 4
Excerpt: Upon arrival male Sprague Dawley (SD) rats were housed two per cage with a dividing wall between them. They were housed at reversed diurnal rhythm and with environmental enrichment. The rats were acclimatized to reversed diurnal rhythm for at least 1 week before being transferred to the experimental system cages (single housed). They were acclimatized to the experimental system cages for an additional 5-6 days before start of the experiment. The rats had ad libitum access to food (Altromin 1324) and water during acclimatization periods.
One day before start of the study the rats were divided in three or four groups (n=5-8) based on body weight (250-300 g).
16 hours before start of the study the rats were fasted. Food was returned in connection with dosing. The rats received a single injection subcutaneously (s.c., 1 ml/kg) with vehicle or CGRP analogue. Intraperitoneally dosing (i.p., 1 ml/kg) was used in the first experiment of the al analogue. The effect of analogues on food and water consumption was examined in a “FeedWIN” system (Ellegaard Systems A/S, Faaborg, Denmark). The system contained 32 stations. In each station the continuous water and food consumption for a single rat was recorded.
A station consisted of a cage with metal lid and two scales placed on each side of the cage. […] Data was collected each 15 minutes and up to 48 hours and expressed as accumulated food intake (Mean±SEM).

Row | Compound | pEC50-ratio relative to human alpha-CGRP, measured by the CGRP-induced cAMP accumulation in CGRP receptor expressing cells [1] | further results
1 | ACDXATCVTHRLAGLLSRSGGVVKNNFVPTNVGSKAF (ACDK([AEEA-AEEA-γGlu-C18 diacid])ATCVTHRLAGLLSRSGGVVKNNFVPTNVGSKAF; disulfide 2-7; ends not checked) [Acylation Position 4, human alpha CGRP, position 4 replaced by X, the acylated L-lysine; Cys2-Cys7 disulfide] | 0.15 | –
2 | CC(C)C[C@H](NC(=O)CNC(=O)[C@H](C)NC(=O)[C@H](CC(C)C)NC(=O)[C@H](CCCNC(=N)N)NC(=O)[C@H](Cc1c[nH]cn1)NC(=O)[C@@H](NC(=O)[C@@H](NC(=O)[C@@H]1CSSC[C@H](NC(=O)[C@H](CO)NC(=O)COCCOCCNC(=O)CC[C@H](NC(=O)CCCCCCCCCCCCCCCCC(=O)O)C(=O)O)C(=O)N[C@@H](CC(=O)O)C(=O)N[C@@H]([C@@H](C)O)C(=O)N[C@@H](C)C(=O)N[C@@H]([C@@H](C)O)C(=O)N1)C(C)C)[C@@H](C)O)C(=O)N[C@@H](CC(C)C)C(=O)N[C@@H](CO)C(=O)N[C@@H](CCCNC(=N)N)C(=O)N[C@@H](CO)C(=O)NCC(=O)NCC(=O)N[C@H](C(=O)N[C@H](C(=O)N[C@@H](CCCCN)C(=O)N[C@@H](CC(N)=O)C(=O)N[C@@H](CC(N)=O)C(=O)N[C@@H](Cc1ccccc1)C(=O)N[C@H](C(=O)N1CCC[C@H]1C(=O)N[C@H](C(=O)N[C@@H](CC(N)=O)C(=O)N[C@H](C(=O)NCC(=O)N[C@@H](CO)C(=O)N[C@@H](CCCCN)C(=O)N[C@@H](C)C(=O)N[C@@H](Cc1ccccc1)C(N)=O)C(C)C)[C@@H](C)O)C(C)C)C(C)C)C(C)C [Analogue alpha 1, N-alpha-[2-(2-{2-[(S)-4-Carboxy-4-(17-carboxyheptadecanoylamino)butyrylamino]ethoxy}ethoxy)acetyl][Ser1]alpha-human CGRP peptide] | – | Cmax [2]: 250 nM; half-life ([2]; read-out: T½): > 7 h; EC50 [1]: 0.09 nM
3 | N-alpha-[2-(2-{2-[(S)-4-Carboxy-4-(17-carboxyheptadecanoylamino)butyrylamino]ethoxy}ethoxy)acetyl][Ser1]beta-human CGRP peptide [Analogue beta 1] | – | accumulated food intake [3]: Reduction in accumulated food intake
4 | ACDTATCVTHRLAGLLSRSGGVVKNNFVXTNVGSKAF (ACDTATCVTHRLAGLLSRSGGVVKNNFVK([AEEA-AEEA-γGlu-C18 diacid])TNVGSKAF; disulfide 2-7; ends not checked) [Acylation Position 29, human alpha CGRP, position 29 replaced by X, the acylated L-lysine; Cys2-Cys7 disulfide] | 0.41 | –

Second part, led by results:

Row | pEC50-ratio relative to human alpha-CGRP, measured by the CGRP-induced cAMP accumulation in CGRP receptor expressing cells [1] | Compound | further results
5 | 0.38 | ACDTATCVTHRLAGLLSRSGGVVKNXFVPTNVGSKAF (ACDTATCVTHRLAGLLSRSGGVVKNK([AEEA-AEEA-γGlu-C18 diacid])FVPTNVGSKAF; disulfide 2-7; ends not checked) [Acylation Position 26, human alpha CGRP, position 26 replaced by X, the acylated L-lysine; Cys2-Cys7 disulfide] | –
6 | 0.23 | ACDTATCVTHRLAGLLSRSGGVVKXNFVPTNVGSKAF (ACDTATCVTHRLAGLLSRSGGVVKKNFVPTNVGSKAF; cyclised or stapled) [Acylation Position 25, human alpha CGRP, position 25 replaced by X, the acylated L-lysine; Cys2-Cys7 disulfide] | –
7 | 0.62 | ACDTATCVTHRLAGLLSRSGGVVKNNFXPTNVGSKAF (ACDTATCVTHRLAGLLSRSGGVVKNNFK([AEEA-AEEA-γGlu-C18 diacid])PTNVGSKAF; disulfide 2-7; ends not checked) [Acylation Position 28, human alpha CGRP, position 28 replaced by X, the C18 diacid-gamma-Glu-OEG-OEG acylated L-lysine; Cys2-Cys7 disulfide] | –
8 | 0.28 | ACDTATCVTHXLAGLLSRSGGVVKNNFVPTNVGSKAF (ACDTATCVTHK([AEEA-AEEA-γGlu-C18 diacid])LAGLLSRSGGVVKNNFVPTNVGSKAF; disulfide 2-7; ends not checked) [Acylation Position 11, human alpha CGRP, position 11 replaced by X, the acylated L-lysine; Cys2-Cys7 disulfide] | –
9 | 0.44 | ACDTATCVTHRLAGLLSRSGGVVKNNFVPTXVGSKAF (ACDTATCVTHRLAGLLSRSGGVVKNNFVPTK([AEEA-AEEA-γGlu-C18 diacid])VGSKAF; disulfide 2-7; ends not checked) [Acylation Position 31, human alpha CGRP, position 31 replaced by X, the acylated L-lysine; Cys2-Cys7 disulfide] | –

From patent US8835379B2, “Derivatives of CGRP” (Novo Nordisk A/S, priority 2009, dated 2014)
